In PMC2789033:

Columns and labels:
[1] = molecular target: F5/8C module of LamA (Paenibacillus β-1,3-glucanase), residues 1636-1793 (Paenibacillus sp. BCRC 17245); experiment: AUC; sedimentation velocity, 20°C, 42000 rpm, protein 0.17 mg/mL in 10 mM phosphate pH 7.0, 10% glycerol; c(s) by Sedfit94; monomer to dimer
[2] = molecular target: F5/8C module of LamA (Paenibacillus β-1,3-glucanase), residues 1636-1793 (Paenibacillus sp. BCRC 17245); experiment: cross-linking; protein 0.65 mg/mL, 0.05% glutaraldehyde, room temperature, 1 h, 12% SDS-PAGE
[3] = molecular target: F5/8C module of LamA (Paenibacillus β-1,3-glucanase), residues 1636-1793 (Paenibacillus sp. BCRC 17245); experiment: SEC; Sephacryl S-300 gel filtration column (Hiprep 16/60), 10 mM sodium acetate pH 5.8, 10% glycerol; monomer to dimer

dimer fraction [1]: 15% | stoichiometry N [1]: 2 | stoichiometry N [2]: 2 | dimer fraction [3]: 15% | stoichiometry N [3]: 2
Substance: F5/8C module of LamA (Paenibacillus β-1,3-glucanase), residues 1636-1793 (domain or fragment)
